Where two headings read alike, the source gives them in different places.
What was measured:
[1] = biological target: MA2561 (AmzR, Archaeal Metabolite-sensing Zipper-like Regulator) of Methanosarcina acetivorans (Methanosarcina acetivorans); assay: non-reducing SDS-PAGE
[2] = biological target: MA2561 (AmzR, Archaeal Metabolite-sensing Zipper-like Regulator) of Methanosarcina acetivorans (Methanosarcina acetivorans); assay: non-reducing SDS-PAGE; remark: listed apart in the source

Substance “MA2561 (AmzR, Archaeal Metabolite-sensing Zipper-like Regulator) of Methanosarcina acetivorans (natural protein)” has a stoichiometry N [1] of 2 and a stoichiometry N [2] of 4.

Source: publication doi:10.1101/2025.05.05.652248
